Assay results: patent publication US20250295792A1, “POLYETHYLENE GLYCOL-MODIFIED FORM OF KININ OR DERIVATIVE THEREOF AND PHARMACEUTICAL USE THEREOF” (ZonHon Biopharma Institute, Inc., priority 2022, published 2025)
Where no end group is shown, it is not given here. [ ]: non-standard residue; d: D form. 2Thi = N[C@@H](Cc1cccs1)C(=O)O

These binders were tested against B2 receptor (assay: cell-based or functional assay).
Chain of B2 receptor (P30411 whole entry): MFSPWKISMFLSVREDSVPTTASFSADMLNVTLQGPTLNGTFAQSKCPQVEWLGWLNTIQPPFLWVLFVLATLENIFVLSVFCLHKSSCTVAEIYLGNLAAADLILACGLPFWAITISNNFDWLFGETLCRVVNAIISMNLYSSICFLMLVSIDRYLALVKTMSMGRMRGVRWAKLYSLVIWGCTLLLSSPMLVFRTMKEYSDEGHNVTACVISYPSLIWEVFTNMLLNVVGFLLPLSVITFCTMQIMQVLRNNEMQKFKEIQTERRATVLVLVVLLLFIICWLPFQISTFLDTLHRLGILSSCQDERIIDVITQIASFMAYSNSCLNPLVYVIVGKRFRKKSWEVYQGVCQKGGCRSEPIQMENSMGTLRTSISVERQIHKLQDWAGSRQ

| Relative affinity activity (B2-NFAT-CHO-K1 luciferase reporter gene assay, from EC50) [%] | Binder |
| --- | --- |
| 125 | CRPPG[2Thi]SPFR [Lys-BKm15] |
| < 10 | KRPPGXSPF ({THI} (β-2-thiophenylalanine) at position 6: KRPPG{THI}SPF) [Lys-BKm05] |
| 120 | CRRRPPG[2Thi]SPFR [Lys-BKm16] |
| 115 | CRRPPG[2Thi]SPFR [Lys-BKm13] |
| 0 | SPFR [Lys-BKm10] |
| < 10 | PG[2Thi]SPFR [Lys-BKm08] |
| 100 | RPPG[2Thi]SPFR [Lys-BKm02] |
| 0 | [2Thi]SPFR [Lys-BKm09] |
